What was measured:
Format in all cases: cell-based
human CD3 T cells = assay: Transfection of human CD3 T cells (CD8 and CD4 subsets) with Fab/Nb-targeted LNPs; details: targeted Lipid 8 LNP (Lipid 5 in Example 43), GFP mRNA approximately 2.5 μg/mL, approximately 24 hr
Procedure: LNPs were prepared using the mixing process described in Example 6, the buffer exchange process described below in Example 21. Using methods similar to Example 12, hSP34 and TRX2 Fab-lipid conjugates and a non-T cell specific anti-HER2 lipid-conjugate (Nellis D F, Ekstrom D L, Kirpotin D B, Zhu J, Andersson R, Broadt T L, Ouellette T F, Perkins S C, Roach J M, Drummond D C, Hong K, Marks J D, Park J W and Giardina S L (2005) Preclinical manufacture of an anti-HER2 scFv-PEG-DSPE, liposome-inserting conjugate. 1. Gram-scale production and purification. Biotechnol Prog 21:205-220) were post-inserted at various densities (SP34 0.25-17 g/mol; TRX2 0.25-9 g/mol; SP34+TRX2 0.25-9 g/mol each conjugate; anti-HER2 17 g/mol) into LNPs containing Lipid 8 and anti-CD20 targeting CART mRNA. Transfections were performed with human CD3 T cells at approximately 2.5 μg/mL mRNA for approximately 24 hr. For FACS analysis T cells were stained with M1 antibody (Sigma, F3040) that bind a N-terminus FLAG-tag variant sequence on the TTR-023 CAR (sequence provided below) in addition to staining for CD69 (Biolegend, 310930) and CD4 (Biolegend, 344648) to differentiate CD8 from CD4 cells.
LNPs were prepared using the mixing process described in Example 6, the buffer exchange process described in Example 21. Using methods similar to Example 12, hSP34, TRX2, and Ibalizumab Fab-lipid conjugates and a non-T cell specific anti-HER2 lipid-conjugate were post-inserted at various densities (specified in FIGS. 20A and 20B into LNPs containing Lipid 8 and Cy5/GFP mRNA. Transfections were performed with human CD3 T cells at approximately 2.5 μg/mL mRNA for approximately 24 hr and stained for CD69 (Biolegend, 310930) and CD4 (Biolegend, 344648) to differentiate CD8 from CD4 cells by FACS analysis.
LNPs were prepared using the mixing process described in Example 6, the buffer exchange process described in Example 21. Conjugates were generated using a method similar to that of Example 4 except 0.025, 0.1, 0.5 mM TCEP was used for hSP34 DS, 0.025, 0.2, 2 mM TCEP was used for hSP34-hlam NoDS (interchain disulfide knockout) for reduction prior to conjugation and the conjugation reactions were performed at 37 C for 2 hr. SDS-PAGE (FIGS. 65A, 65B) was performed using the manufacturers recommended conditions with 1 ug of protein (Thermo, 4-12% Bis-Tris MiniGel). RP-HPLC (FIGS. 65C, 65D) was performed using an Agilent 300 SB-C8 at 0.5 mL/min with a column temperature of 60° C., Mobile Phase A: Water with 0.1% TFA, Mobile Phase B: Acetonitrile with 0.1% TFA, Gradient % B: 0 min 5%, 1 min 5%, 6.5 min 95%, 8 min 95% injecting 10 ul with a target of 1-25 ug of protein. Using methods similar to Example 12, ant-CD3 hSP34 (with and without natural interchain disulfide, DS (with interchain disulfide) vs. NoDS (without interchain disulfide), see sequences below) PEG-lipid conjugated Fabs were post-inserted at various Fab densities (6, 12, 17 g Fab/mol total lipid) into LNPs containing Lipid 8 and Cy5/GFP mRNA. Transfections were performed with human CD3 T cells at approximately 2.5 μg/mL mRNA for approximately 24 hr. Levels of transfection of CD3 T cells was measured by flow cytometry.
LNPs were prepared using the mixing process described in Example 6, the buffer exchange process described in Example 21. Conjugates were generated using a method similar to that of Example 4 except 0.1 mM TCEP was used for reduction prior to conjugation and the conjugation reaction was performed at 37 C for 2 hr. […]

IFNγ = assay: Human IFNγ ELISA of T cell culture supernatants after LNP transfection; details: T cells approximately 24 hr after targeted LNPs at approximately 2.5 μg/mL mRNA
Procedure: LNPs were prepared using the mixing process described in Example 6, the buffer exchange process described in Example 21. hSP34 and TRX2 Fab-lipid conjugates generated from methods described in Example 4 and a non-T cell specific anti-HER2 lipid-conjugate (Nellis D F, Ekstrom D L, Kirpotin D B, Zhu J, Andersson R, Broadt T L, Ouellette T F, Perkins S C, Roach J M, Drummond D C, Hong K, Marks J D, Park J W and Giardina S L (2005) Preclinical manufacture of an anti-HER2 scFv-PEG-DSPE, liposome-inserting conjugate. 1. Gram-scale production and purification. Biotechnol Prog 21:205-220) were post-inserted at various densities (SP34 0.6-17 g/mol; TRX2 3-9 g/mol; anti-HER2 17 g/mol) into LNPs containing Lipid 8, Cy5 labeled GFP mRNA and GFP mRNA (1:9 Cy5:GFP mass ratio) by adding conjugate and LNPs together and heating the solution without mixing in a thermal cycler at 60 C for 60 min and cooled to 4° C. for 3-5 min. […] After transfection, LNP binding efficiency (Cy5) and transfection efficiency (GFP) was evaluated by flow cytometry. Supernatants were measured for human IFNγ concentration using a commercially available ELISA kit under manufacturers recommended conditions (R&D Systems Duoset).
IFN-γ was assayed using an R&D Duoset […] ELISA kit, PN DY285B. […] Optical density at 450 nm was read on a Spectramax M5 plate reader. […]

primary human NK cells = assay: LNP transfection of co-cultured human T cells and NK cells: NK cells; details: Lipid 8 LNP, 2.5 ug/mL mRNA, 24 hours
Procedure: CD3-depleted PBMCs were purified using magnetic-based CD3 positive selection and retaining of the negative fraction. 20 million CD3 depleted PBMCs were added to 1 well of a 6 well GREX plate in media containing 10 ng/mL IL-15 for 7 days. On day 7, each well was split in 2 and cells were cultured further in media containing 10 ng/mL IL-15 for an additional 7 days. On day 14, NK cells were concentrated to 1 million cells/mL in preparation for co-transfection with primary human T cells.
LNPs were prepared using the mixing process described in Example 6, the buffer exchange process described in Example 25. The LNPs were formulated using eGFP encoding mRNA (TriLink Biotechnologies, California, US), Lipid 8 as the ionizable lipid, and labeled with 0.01 mol % DiIC18(5)-DS (Invitrogen, Massachusetts, US). Fab-lipid conjugates generated from methods described in Example 4 while generation of Nb-conjugated differed in using 1:1:4 Nb:DSPE-SKPEG-maileimide:DSPE-2KPEG-OCH3 and a 50 kD UF membrane (Millipore Corp, Billerica, Mass. USA) for separation of Nb-conjugate from free Nb. Using methods similar to Example 12, conjugated Fabs and conjugated Nb were post-inserted at various densities (Table 41) into LNPs containing Lipid 8 and GFP mRNA with DiI dye. […]. […]
24 hours after LNP transfection, cell culture media was aspirated from T cell and NK cell co-cultures after centrifugation. […] Following acquisition by flow cytometry, T cells and NK cells were analyzed independently using FlowJo (flow cytometry analysis software). In either CD3+ cells (T cells) or CD56+ cells (NK cells), the frequency of GFP positive events relative to GFP negative events was calculated (FIG. 64A). Additionally, the overall fluorescence of GFP was quantified by assessment of mean fluorescence intensity (MFI, FIG. 64B). […] Together, these metrics enabled quantification of LNP transfection efficiency of all targeted LNPs tested in primary human T cell and NK cell co-cultures.

B1: Teplizumab: anti-CD3 Teplizumab bDS Fab, SEQ ID NO: 54 and 55 (antibody)
heavy: QVQLVQSGGGVVQPGRSLRLSCKASGYTFTRYTMHWVRQAPGKGLEWIGYINPSRGYTNYNQKVKDRFTISRDNSKNTAFLQMDSLRPEDTGVYFCARYYDDHYCLDYWGQGTPVTVSSASTKGPSVFPLAPSSKSTSGGTAALGCLVKDYFPEPVTVSWNSGALTSGVHTCPAVLQSSGLYSLSSVVTVPSSSLGTQTYICNVNHKPSNTKVDKKVEPKSSDKTHTCHHHHHH
light: DIQMTQSPSSLSASVGDRVTITCSASSSVSYMNWYQQTPGKAPKRWIYDTSKLASGVPSRFSGSGSGTDYTFTISSLQPEDIATYYCQQWSSNPFTFGQGTKLQITRTVAAPSVFIFPPSDEQLKSGTASVVCLLNNFYPREAKVQWKVDNALQSGNSQESVTEQDSKDSTYSLCSTLTLSKADYEKHKVYACEVTHQGLSSPVTKSFNRGES
% GFP transfection and GFP expression (MFI) of CD8 and CD4 T cells, in words (human CD3 T cells): lower levels of GFP expression | IFNγ secretion into supernatant, in words (IFNγ): higher levels of IFNγ secretion than SP34

B2: Lorvotuzumab: anti-CD56 Lorvotuzumab Fab bDS, SEQ ID NO: 32 and 33 (antibody)
heavy: QVQLVESGGGVVQPGRSLRLSCAASGFTFSSFGMHWVRQAPGKGLEWVAYISSGSFTIYYADSVKGRFTISRDNSKNTLYLQMNSLRAEDTAVYYCARMRKGYAMDYWGQGTLVTVSSASTKGPSVFPLAPSSKSTSGGTAALGCLVKDYFPEPVTVSWNSGALTSGVHTCPAVLQSSGLYSLSSVVTVPSSSLGTQTYICNVNHKPSNTKVDKKVEPKSSDKTHTCHHHHHH
light: DVVMTQSPLSLPVTLGQPASISCRSSQIIIHSDGNTYLEWFQQRPGQSPRRLIYKVSNRFSGVPDRFSGSGSGTDFTLKISRVEAEDVGVYYCFQGSHVPHTFGQGTKVEIKRTVAAPSVFIFPPSDEQLKSGTASVVCLLNNFYPREAKVQWKVDNALQSGNSQESVTEQDSKDSTYSLCSTLTLSKADYEKHKVYACEVTHQGLSSPVTKSFNRGES
transfection of NK cells in T/NK co-culture (% GFP, GFP MFI, DiI), in words (primary human NK cells): highly specific transfection of NK cells

B3: A3: anti-CD56 A3 Fab bDS, SEQ ID NO: 30 and 31 (antibody)
heavy: EVQLVQSGAEVKKPGSSVKVSCKASGGTFTGYYMHWVRQAPGQGLEWMGWINPNSGGTNYAQKFQGRVTMTRDTSISTAYMELSRLRSDDTAVYYCARDLSSGYSGYFDYWGQGTLVTVSSASTKGPSVFPLAPSSKSTSGGTAALGCLVKDYFPEPVTVSWNSGALTSGVHTCPAVLQSSGLYSLSSVVTVPSSSLGTQTYICNVNHKPSNTKVDKKVEPKSSDKTHTCGGHHHHHH
light: DVVMTQSPLSLPVTPGEPASISCRSSQSLLHSNGYNFLDWYLQKPGQSPQLLIYLGSNRASGVPDRFSGSGSGTDFTLKISRVEADDVGVYYCMQSLQTPWTFGHGTKVEIKRTVAAPSVFIFPPSDEQLKSGTASVVCLLNNFYPREAKVQWKVDNALQSGNSQESVTEQDSKDSTYSLCSTLTLSKADYEKHKVYACEVTHQGLSSPVTKSFNRGES
transfection of NK cells in T/NK co-culture (% GFP, GFP MFI, DiI), in words (primary human NK cells): highly specific transfection of NK cells

From patent US20220218614A1, “IONIZABLE CATIONIC LIPIDS AND LIPID NANOPARTICLES, AND METHODS OF SYNTHESIS AND USE THEREOF” (Tidal Therapeutics, Inc., priority 2020, published 2022)
